# B1: TRIM55 (parent)
# chain: YKSFSKEQQTMDNLEKQLICPICL
# Variants of: B1
# Test: protein stability index of a GFP-peptide fusion (GPS, HEK-293T) (PSI 1-6); higher = more stable
# Conditions: c terminus: a fixed tail appended
# 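Note: lentivirally expressed fusions sorted by FACS into six bins by GFP to DsRed ratio, PSI derived from sequencing read proportions per bin multiplied by bin number.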
row,Variant,protein stability index
1,YKSFSKEQQTMDNLEKPLICPICL [Q17P],1.68
2,YKSFSKEQQTMDNLEKRLICPICL [Q17R],2.22
3,YKSFSKEQQTMDNLEKALICPICL [Q17A],1.79
4,YKSFSKEQQTMDNLEKQLMCPICL [I19M],1.88
5,YKSFSKEQQTMDNLEKQLPCPICL [I19P],2.29
6,YKSFSKEQQTMDNLEKQLDCPICL [I19D],2.56
7,YKSFSKEQQTMDNLFKQLICPICL [E15F],2.1
8,YKSFSKEQQTMDNLCKQLICPICL [E15C],2.72
9,YKSFSKEQQTMDNLTKQLICPICL [E15T],2.9
10,YKSFSKEQQTMDNLHKQLICPICL [E15H],2.27
11,YKSFSKEQQTMDNLAKQLICPICL [E15A],2.79
12,YKSFSKEQQTMDNLLKQLICPICL [E15L],1.05
13,YKSFSKEQSTMDNLEKQLICPICL [Q9S],1.75
14,YKSFSKEQMTMDNLEKQLICPICL [Q9M],2.17
15,YKSFSKEQLTMDNLEKQLICPICL [Q9L],1.87
16,YKSFSKEQRTMDNLEKQLICPICL [Q9R],2.5
17,YKSFSKEQNTMDNLEKQLICPICL [Q9N],2.22
18,YKSFSKEQATMDNLEKQLICPICL [Q9A],2.25
19,YKSFSKEQGTMDNLEKQLICPICL [Q9G],2.39
20,YKSFSKEQKTMDNLEKQLICPICL [Q9K],2.15
21,YKSFSKEQVTMDNLEKQLICPICL [Q9V],1.76
22,YKSFSKEQQTMDNLEKQLIYPICL [C20Y],2.03
23,YKSFSKEQQTMDNLEKQLIIPICL [C20I],1.62
24,YKSFSKEQQTMDNLEKQLIVPICL [C20V],1.78

row,Variant,protein stability index
1,YKSFSKEQQTMDNLEKQLIWPICL [C20W],1.85
2,YKSFSKEQQTMDNLEKQLITPICL [C20T],2.44
3,YKSFSKEQQTMDNLEKQLIQPICL [C20Q],2.05
4,YKSFSKEQQTMDNLEKQLIRPICL [C20R],2.11
5,YKSFSKEQQTMDNLEKQLIHPICL [C20H],2.27
6,YKSFSKEQQTMDNLEKQLIFPICL [C20F],2.22
7,YKSFSKEQQTMDNLEKQLIGPICL [C20G],2.52
8,YKSDSKEQQTMDNLEKQLICPICL [F4D],2.43
9,YKSCSKEQQTMDNLEKQLICPICL [F4C],2.59
10,YKSVSKEQQTMDNLEKQLICPICL [F4V],2.24
11,YKSGSKEQQTMDNLEKQLICPICL [F4G],2.49
12,YKSESKEQQTMDNLEKQLICPICL [F4E],2.49
13,YKSISKEQQTMDNLEKQLICPICL [F4I],2.23
14,YKSHSKEQQTMDNLEKQLICPICL [F4H],2.8
15,YKSFSKEQQTMDNLEGQLICPICL [K16G],2.08
16,YKSFSKEQQTMDNLENQLICPICL [K16N],2.07
17,YKSFSKEQQTMDNLEHQLICPICL [K16H],2.89
18,YKSFSKEQQTMDNLEDQLICPICL [K16D],2.33
19,YKSFSKEQQTMDNLEMQLICPICL [K16M],2.15
20,YKSFSKEQQTMDNLEFQLICPICL [K16F],2.14
21,YKSFSKEQQTMDNYEKQLICPICL [L14Y],1.98
22,YKSFSKEQQTMDNNEKQLICPICL [L14N],2.73
23,YKSFSKEQQTMDNFEKQLICPICL [L14F],1.88
24,YKSFSKEQQTMDNKEKQLICPICL [L14K],2.58

row,Variant,protein stability index
1,YKSFSKEQQTMDNGEKQLICPICL [L14G],2.6
2,YKSFSKEQQTMDNMEKQLICPICL [L14M],2.53
3,YKFFSKEQQTMDNLEKQLICPICL [S3F],1.65
4,YKCFSKEQQTMDNLEKQLICPICL [S3C],2
5,YKPFSKEQQTMDNLEKQLICPICL [S3P],2.05
6,YKWFSKEQQTMDNLEKQLICPICL [S3W],2.18
7,YKDFSKEQQTMDNLEKQLICPICL [S3D],2.47
8,YKIFSKEQQTMDNLEKQLICPICL [S3I],1.94
9,YFSFSKEQQTMDNLEKQLICPICL [K2F],2.09
10,YQSFSKEQQTMDNLEKQLICPICL [K2Q],1.59
11,YRSFSKEQQTMDNLEKQLICPICL [K2R],1.73
12,YSSFSKEQQTMDNLEKQLICPICL [K2S],2.38
13,YTSFSKEQQTMDNLEKQLICPICL [K2T],1.83
14,YKSFSKEQQTMDTLEKQLICPICL [N13T],2.81
15,YKSFSKEQQTMDILEKQLICPICL [N13I],1.77
16,YKSFSKEQQTMDELEKQLICPICL [N13E],1.87
17,YKSFSKEQQTMDVLEKQLICPICL [N13V],1.68
18,YKSFSKEQQTMDRLEKQLICPICL [N13R],1.79
19,YKSFSKEQQTMDHLEKQLICPICL [N13H],1.95
20,YKSFSKEQQTMDCLEKQLICPICL [N13C],2.02
21,YKSFSKEQQTMDFLEKQLICPICL [N13F],2.34
22,YKSFSKEQQTMDSLEKQLICPICL [N13S],1.91
23,YKSFSKEQQTMDKLEKQLICPICL [N13K],2.09
24,YKSFSKEQQTRDNLEKQLICPICL [M11R],2.77

row,Variant,protein stability index
1,YKSFSKEQQTHDNLEKQLICPICL [M11H],1.82
2,YKSFSKEQQTADNLEKQLICPICL [M11A],2.74
3,YKSFSKEQQTEDNLEKQLICPICL [M11E],2.69
4,YKSFSKEQQTPDNLEKQLICPICL [M11P],2.66
5,YKSFSKEQQTNDNLEKQLICPICL [M11N],3.68
6,YKSFSKEQQTIDNLEKQLICPICL [M11I],1.83
7,YKSFSKEQQNMDNLEKQLICPICL [T10N],2.26
8,YKSFSKEQQHMDNLEKQLICPICL [T10H],2.03
9,YKSFSKEQQPMDNLEKQLICPICL [T10P],2.53
10,YKSFSKEQQRMDNLEKQLICPICL [T10R],2.03
11,YKSFSKEQQGMDNLEKQLICPICL [T10G],2.27
12,YKSFSKEQQTMDNLEKQLICPICK [L24K],2.63
13,YKSFSKEQQTMDNLEKQLICPICR [L24R],2.31
14,YKSFSKEQQTMDNLEKQLICPICY [L24Y],2.88
15,YKSFSKEQQTMDNLEKQLICPICS [L24S],2.13
16,YKSFSKEQQTMDNLEKQLICPICC [L24C],2.07
17,YKSFSKEQQTMDNLEKQLICPICW [L24W],2.37
18,YKSFSKEQQTMDNLEKQLICPICF [L24F],2.15
19,YKSFSKEQQTMDNLEKQLICPICM [L24M],2.33
20,YKSFSKEQQTMDNLEKQLICPICH [L24H],2.5
21,YKSFSKEQQTMDNLEKQLICPICP [L24P],3.03
22,YKSFSKEQQTMDNLEKQLICPICA [L24A],1.92

# From the supplement of paper PMC10567573
